# Measurements published in publication PMC9482650, “Quantitative fragmentomics allow affinity mapping of interactomes” (Nature Communications, 2022).
# T1: HTRA4, P83105
# T1 sequence (P83105 378-476, limits assumed, looked up): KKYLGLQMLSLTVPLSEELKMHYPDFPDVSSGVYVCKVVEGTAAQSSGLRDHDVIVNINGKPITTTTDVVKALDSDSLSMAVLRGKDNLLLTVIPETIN
# T2: PTPN13_1, Q12923
# T2 sequence (Q12923 1088-1188, limits assumed, looked up): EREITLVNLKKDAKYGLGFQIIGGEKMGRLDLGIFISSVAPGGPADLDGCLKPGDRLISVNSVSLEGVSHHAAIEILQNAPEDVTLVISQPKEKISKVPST
# T3: APBA3_1, O96018
# T3 sequence (O96018 389-490, limits assumed, looked up): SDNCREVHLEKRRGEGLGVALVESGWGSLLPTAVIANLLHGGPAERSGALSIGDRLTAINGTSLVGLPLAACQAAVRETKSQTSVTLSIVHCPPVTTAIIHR
# T4: TIAM2, Q8IVF5
# T4 sequence (Q8IVF5 885-986, limits assumed, looked up): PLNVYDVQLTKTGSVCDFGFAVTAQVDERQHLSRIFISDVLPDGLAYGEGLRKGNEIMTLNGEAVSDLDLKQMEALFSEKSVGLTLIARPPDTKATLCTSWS
# T5: RHPN1, Q8TCX5
# T5 sequence (Q8TCX5 508-602, limits assumed, looked up): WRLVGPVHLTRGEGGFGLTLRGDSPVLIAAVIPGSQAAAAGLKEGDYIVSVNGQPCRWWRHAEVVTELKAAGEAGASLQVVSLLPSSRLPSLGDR
# T6: SNTG2, Q9NY99
# T6 sequence (Q9NY99 68-166, limits assumed, looked up): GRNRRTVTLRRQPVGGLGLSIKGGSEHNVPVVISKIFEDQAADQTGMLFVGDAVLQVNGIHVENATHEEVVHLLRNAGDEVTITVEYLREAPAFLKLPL
# T7: RAPGEF6, Q8TEU7
# T7 sequence (Q8TEU7 525-625, limits assumed, looked up): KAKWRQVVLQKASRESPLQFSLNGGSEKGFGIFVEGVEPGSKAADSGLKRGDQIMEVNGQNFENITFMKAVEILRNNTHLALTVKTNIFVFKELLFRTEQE
# T8: FRMPD1, Q5SYB0
# T8 sequence (Q5SYB0 52-145, limits assumed, looked up): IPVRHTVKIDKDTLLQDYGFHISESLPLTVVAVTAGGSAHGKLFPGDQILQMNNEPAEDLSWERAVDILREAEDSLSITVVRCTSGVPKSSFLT
# T9: PDZD7_3, Q9H5P4
# T9 sequence (Q9H5P4 857-944, limits assumed, looked up): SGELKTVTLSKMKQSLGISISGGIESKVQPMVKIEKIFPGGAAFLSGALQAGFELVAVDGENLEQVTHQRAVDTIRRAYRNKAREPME
# T10: DVL3, Q92997
# T10 sequence (Q92997 244-331, limits assumed, looked up): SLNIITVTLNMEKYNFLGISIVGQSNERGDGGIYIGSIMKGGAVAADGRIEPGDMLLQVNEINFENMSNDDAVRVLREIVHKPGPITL
# T11: SIPA1L2, Q9P2F8
# T11 sequence (Q9P2F8 945-1036, limits assumed, looked up): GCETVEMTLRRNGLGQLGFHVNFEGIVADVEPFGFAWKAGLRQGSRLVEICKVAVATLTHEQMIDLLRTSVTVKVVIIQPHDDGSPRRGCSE
# Target: T1, HTRA4, P83105
# Assay: holdup assay
# Parameters: key: below the threshold = too weak to quantify, mostly under pKd 3.1 to 4
# Settings: plain residues with an end cap or a label only (N-terminal biotin on a linker: ado-ado)
row,pKd,Binder
1,below the threshold,"LESTTVGTSV [KARS1, Q15046]"

# Target: T2, PTPN13_1, Q12923
# Assay: holdup assay
# Parameters: key: below the threshold = too weak to quantify, mostly under pKd 3.1 to 4
# Settings: plain residues with an end cap or a label only (N-terminal biotin on a linker: ado-ado)
row,pKd,Binder
1,below the threshold,"LESTTVGTSV [KARS1, Q15046]"

# Target: LNX1_2, Q8TBB1
# Assay: holdup assay
# Parameters: key: below the threshold = too weak to quantify, mostly under pKd 3.1 to 4
# Settings: plain residues with an end cap or a label only (N-terminal biotin on a linker: ado-ado)
# Sequence of LNX1_2, Q8TBB1 (Q8TBB1 371-470): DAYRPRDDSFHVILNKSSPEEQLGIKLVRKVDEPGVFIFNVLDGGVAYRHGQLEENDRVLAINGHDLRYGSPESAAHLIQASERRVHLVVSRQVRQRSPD
row,pKd,Binder
1,below the threshold,"LESTTVGTSV [KARS1, Q15046]"

# Target: FRMPD2_3, Q68DX3
# Assay: holdup assay
# Parameters: key: below the threshold = too weak to quantify, mostly under pKd 3.1 to 4
# Settings: plain residues with an end cap or a label only (N-terminal biotin on a linker: ado-ado)
# Sequence of FRMPD2_3, Q68DX3 (Q68DX3 1073-1166): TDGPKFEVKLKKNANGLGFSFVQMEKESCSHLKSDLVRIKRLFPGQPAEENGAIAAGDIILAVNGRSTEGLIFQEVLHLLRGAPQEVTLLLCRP
row,pKd,Binder
1,below the threshold,"LESTTVGTSV [KARS1, Q15046]"

# Target: FRMPD4, Q14CM0
# Assay: holdup assay
# Parameters: key: below the threshold = too weak to quantify, mostly under pKd 3.1 to 4
# Settings: plain residues with an end cap or a label only (N-terminal biotin on a linker: ado-ado)
# Sequence of FRMPD4, Q14CM0 (Q14CM0 67-160): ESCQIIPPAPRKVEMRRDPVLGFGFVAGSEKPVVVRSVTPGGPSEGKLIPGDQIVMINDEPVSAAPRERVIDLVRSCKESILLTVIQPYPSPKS
row,pKd,Binder
1,below the threshold,"LESTTVGTSV [KARS1, Q15046]"

# Target: NHERF4_4, Q86UT5
# Assay: holdup assay
# Parameters: key: below the threshold = too weak to quantify, mostly under pKd 3.1 to 4
# Settings: plain residues with an end cap or a label only (N-terminal biotin on a linker: ado-ado)
# Sequence of NHERF4_4, Q86UT5 (Q86UT5 464-550): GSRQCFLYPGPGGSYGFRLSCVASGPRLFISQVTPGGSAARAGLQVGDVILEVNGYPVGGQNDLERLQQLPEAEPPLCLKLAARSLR
row,pKd,Binder
1,below the threshold,"LESTTVGTSV [KARS1, Q15046]"

# Target: T3, APBA3_1, O96018
# Assay: holdup assay
# Parameters: key: below the threshold = too weak to quantify, mostly under pKd 3.1 to 4
# Settings: plain residues with an end cap or a label only (N-terminal biotin on a linker: ado-ado)
row,pKd,Binder
1,below the threshold,"LESTTVGTSV [KARS1, Q15046]"

# Target: Inadl_6, Q8NI35
# Assay: holdup assay
# Parameters: key: below the threshold = too weak to quantify, mostly under pKd 3.1 to 4
# Settings: plain residues with an end cap or a label only (N-terminal biotin on a linker: ado-ado)
# Sequence of Inadl_6, Q8NI35 (Q8NI35 1058-1167): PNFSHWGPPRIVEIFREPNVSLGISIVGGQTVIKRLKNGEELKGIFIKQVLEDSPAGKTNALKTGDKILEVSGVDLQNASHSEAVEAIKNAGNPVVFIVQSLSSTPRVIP
row,pKd,Binder
1,below the threshold,"LESTTVGTSV [KARS1, Q15046]"

# Target: T4, TIAM2, Q8IVF5
# Assay: holdup assay
# Parameters: key: below the threshold = too weak to quantify, mostly under pKd 3.1 to 4
# Settings: plain residues with an end cap or a label only (N-terminal biotin on a linker: ado-ado)
row,pKd,Binder
1,4.05,"LESTTVGTSV [KARS1, Q15046]"

# Target: T5, RHPN1, Q8TCX5
# Assay: holdup assay
# Parameters: key: below the threshold = too weak to quantify, mostly under pKd 3.1 to 4
# Settings: plain residues with an end cap or a label only (N-terminal biotin on a linker: ado-ado)
row,pKd,Binder
1,4.07,"LESTTVGTSV [KARS1, Q15046]"

# Target: GRIP2_4, Q9C0E4
# Assay: holdup assay
# Parameters: key: below the threshold = too weak to quantify, mostly under pKd 3.1 to 4
# Settings: plain residues with an end cap or a label only (N-terminal biotin on a linker: ado-ado)
# Sequence of GRIP2_4, Q9C0E4 (Q9C0E4 446-548): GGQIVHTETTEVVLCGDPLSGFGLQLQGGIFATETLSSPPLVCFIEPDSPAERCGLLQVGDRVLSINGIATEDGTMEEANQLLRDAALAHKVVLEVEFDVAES
row,pKd,Binder
1,below the threshold,"LESTTVGTSV [KARS1, Q15046]"

# Target: MAGI2_6, Q86UL8
# Assay: holdup assay
# Parameters: key: below the threshold = too weak to quantify, mostly under pKd 3.1 to 4
# Settings: plain residues with an end cap or a label only (N-terminal biotin on a linker: ado-ado)
# Sequence of MAGI2_6, Q86UL8 (Q86UL8 1141-1229): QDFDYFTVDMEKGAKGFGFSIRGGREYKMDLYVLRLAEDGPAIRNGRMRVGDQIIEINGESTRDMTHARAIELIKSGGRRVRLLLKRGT
row,pKd,Binder
1,4.32,"LESTTVGTSV [KARS1, Q15046]"

# Target: DLG2_3, Q15700
# Assay: holdup assay
# Parameters: key: below the threshold = too weak to quantify, mostly under pKd 3.1 to 4
# Settings: plain residues with an end cap or a label only (N-terminal biotin on a linker: ado-ado)
row,pKd,Binder
1,4.23,"LESTTVGTSV [KARS1, Q15046]"

# Target: PDZRN4_1, Q6ZMN7
# Assay: holdup assay
# Parameters: key: below the threshold = too weak to quantify, mostly under pKd 3.1 to 4
# Settings: plain residues with an end cap or a label only (N-terminal biotin on a linker: ado-ado)
# Sequence of PDZRN4_1, Q6ZMN7 (Q6ZMN7 213-318): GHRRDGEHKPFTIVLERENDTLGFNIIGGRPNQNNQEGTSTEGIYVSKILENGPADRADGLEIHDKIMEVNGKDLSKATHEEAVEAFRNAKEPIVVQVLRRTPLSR
row,pKd,Binder
1,4.29,"LESTTVGTSV [KARS1, Q15046]"

# Target: FRMPD2_1, Q68DX3
# Assay: holdup assay
# Parameters: key: below the threshold = too weak to quantify, mostly under pKd 3.1 to 4
# Settings: plain residues with an end cap or a label only (N-terminal biotin on a linker: ado-ado)
# Sequence of FRMPD2_1, Q68DX3 (Q68DX3 770-861): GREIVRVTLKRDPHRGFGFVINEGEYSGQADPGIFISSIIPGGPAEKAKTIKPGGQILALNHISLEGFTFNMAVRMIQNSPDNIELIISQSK
row,pKd,Binder
1,below the threshold,"LESTTVGTSV [KARS1, Q15046]"

# Target: GRASP, Q7Z6J2
# Assay: holdup assay
# Parameters: key: below the threshold = too weak to quantify, mostly under pKd 3.1 to 4
# Settings: plain residues with an end cap or a label only (N-terminal biotin on a linker: ado-ado)
# Sequence of GRASP, Q7Z6J2 (Q7Z6J2 96-193): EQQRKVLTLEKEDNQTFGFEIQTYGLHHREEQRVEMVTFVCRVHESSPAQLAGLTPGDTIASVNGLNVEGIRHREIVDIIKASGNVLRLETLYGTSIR
row,pKd,Binder
1,3.95,"LESTTVGTSV [KARS1, Q15046]"

# Target: T6, SNTG2, Q9NY99
# Assay: holdup assay
# Parameters: key: below the threshold = too weak to quantify, mostly under pKd 3.1 to 4
# Settings: plain residues with an end cap or a label only (N-terminal biotin on a linker: ado-ado)
row,pKd,Binder
1,below the threshold,"LESTTVGTSV [KARS1, Q15046]"

# Target: LNX1_1, Q8TBB1
# Assay: holdup assay
# Parameters: key: below the threshold = too weak to quantify, mostly under pKd 3.1 to 4
# Settings: plain residues with an end cap or a label only (N-terminal biotin on a linker: ado-ado)
# Sequence of LNX1_1, Q8TBB1 (Q8TBB1 261-371): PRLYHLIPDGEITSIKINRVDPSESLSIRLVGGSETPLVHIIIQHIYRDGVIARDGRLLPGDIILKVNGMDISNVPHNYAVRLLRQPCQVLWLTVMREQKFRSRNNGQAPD
row,pKd,Binder
1,3.97,"LESTTVGTSV [KARS1, Q15046]"

# Target: T7, RAPGEF6, Q8TEU7
# Assay: holdup assay
# Parameters: key: below the threshold = too weak to quantify, mostly under pKd 3.1 to 4
# Settings: plain residues with an end cap or a label only (N-terminal biotin on a linker: ado-ado)
row,pKd,Binder
1,below the threshold,"LESTTVGTSV [KARS1, Q15046]"

# Target: T8, FRMPD1, Q5SYB0
# Assay: holdup assay
# Parameters: key: below the threshold = too weak to quantify, mostly under pKd 3.1 to 4
# Settings: plain residues with an end cap or a label only (N-terminal biotin on a linker: ado-ado)
row,pKd,Binder
1,below the threshold,"LESTTVGTSV [KARS1, Q15046]"

# Target: ARHGEF12, Q9NZN5-2
# Assay: holdup assay
# Parameters: key: below the threshold = too weak to quantify, mostly under pKd 3.1 to 4
# Settings: plain residues with an end cap or a label only (N-terminal biotin on a linker: ado-ado)
# Sequence of ARHGEF12, Q9NZN5-2 (Q9NZN5 other isoform, or with tags, fused parts or gaps): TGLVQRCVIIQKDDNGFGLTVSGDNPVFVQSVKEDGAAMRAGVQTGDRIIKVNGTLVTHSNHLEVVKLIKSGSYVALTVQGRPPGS
row,pKd,Binder
1,4.03,"LESTTVGTSV [KARS1, Q15046]"

# Target: FRMPD2_2, Q68DX3
# Assay: holdup assay
# Parameters: key: below the threshold = too weak to quantify, mostly under pKd 3.1 to 4
# Settings: plain residues with an end cap or a label only (N-terminal biotin on a linker: ado-ado)
# Sequence of FRMPD2_2, Q68DX3 (Q68DX3 944-1038): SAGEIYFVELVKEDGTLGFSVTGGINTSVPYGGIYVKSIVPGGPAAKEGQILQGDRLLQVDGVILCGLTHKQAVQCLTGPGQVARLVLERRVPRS
row,pKd,Binder
1,3.79,"LESTTVGTSV [KARS1, Q15046]"

# Target: Inadl_8, Q8NI35
# Assay: holdup assay
# Parameters: key: below the threshold = too weak to quantify, mostly under pKd 3.1 to 4
# Settings: plain residues with an end cap or a label only (N-terminal biotin on a linker: ado-ado)
# Sequence of Inadl_8, Q8NI35 (Q8NI35 1425-1530): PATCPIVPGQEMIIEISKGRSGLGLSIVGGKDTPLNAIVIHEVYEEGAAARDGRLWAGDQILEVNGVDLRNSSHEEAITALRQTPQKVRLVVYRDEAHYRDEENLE
row,pKd,Binder
1,4.15,"LESTTVGTSV [KARS1, Q15046]"

# Target: MAGI2_3, Q86UL8
# Assay: holdup assay
# Parameters: key: below the threshold = too weak to quantify, mostly under pKd 3.1 to 4
# Settings: plain residues with an end cap or a label only (N-terminal biotin on a linker: ado-ado)
# Sequence of MAGI2_3, Q86UL8 (Q86UL8 600-682): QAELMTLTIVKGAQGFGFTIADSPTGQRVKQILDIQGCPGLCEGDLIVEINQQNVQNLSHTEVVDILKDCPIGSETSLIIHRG
row,pKd,Binder
1,3.73,"LESTTVGTSV [KARS1, Q15046]"

# Target: T9, PDZD7_3, Q9H5P4
# Assay: holdup assay
# Parameters: key: below the threshold = too weak to quantify, mostly under pKd 3.1 to 4
# Settings: plain residues with an end cap or a label only (N-terminal biotin on a linker: ado-ado)
row,pKd,Binder
1,3.82,"LESTTVGTSV [KARS1, Q15046]"

# Target: T10, DVL3, Q92997
# Assay: holdup assay
# Parameters: key: below the threshold = too weak to quantify, mostly under pKd 3.1 to 4
# Settings: plain residues with an end cap or a label only (N-terminal biotin on a linker: ado-ado)
row,pKd,Binder
1,below the threshold,"LESTTVGTSV [KARS1, Q15046]"

# Target: T11, SIPA1L2, Q9P2F8
# Assay: holdup assay
# Parameters: key: below the threshold = too weak to quantify, mostly under pKd 3.1 to 4
# Settings: plain residues with an end cap or a label only (N-terminal biotin on a linker: ado-ado)
row,pKd,Binder
1,below the threshold,"LESTTVGTSV [KARS1, Q15046]"
